One assay deals with PD-1 (human, UniProt Q15116). In words: cell-based or functional assay.
A further assay concerns the target T1, human CD80 (human).
T1 chain: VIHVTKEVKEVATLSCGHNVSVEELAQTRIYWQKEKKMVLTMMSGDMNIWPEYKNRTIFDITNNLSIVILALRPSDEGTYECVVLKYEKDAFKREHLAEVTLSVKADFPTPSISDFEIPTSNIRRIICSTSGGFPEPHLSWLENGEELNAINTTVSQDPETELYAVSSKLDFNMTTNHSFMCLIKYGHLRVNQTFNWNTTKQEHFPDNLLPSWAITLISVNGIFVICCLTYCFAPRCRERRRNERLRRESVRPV
Put plainly: cell-based or functional assay.

The target of a further assay is T2, TIGIT (human, UniProt Q495A1).
T2 sequence: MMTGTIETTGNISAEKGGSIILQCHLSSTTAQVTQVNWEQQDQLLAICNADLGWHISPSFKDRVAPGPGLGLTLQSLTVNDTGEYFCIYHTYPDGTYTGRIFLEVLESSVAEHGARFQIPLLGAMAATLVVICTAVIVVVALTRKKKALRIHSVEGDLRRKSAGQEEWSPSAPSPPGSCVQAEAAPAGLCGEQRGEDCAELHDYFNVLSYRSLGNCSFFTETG
In words: cell-based or functional assay.

For the next assay, the target named is CD28 (human, UniProt P10747). In words: cell-based or functional assay.
The target in another assay is human PD-1 (human, UniProt Q15116). In words: flow cytometry, CHO/PD-1 cells, 100 nM, anti-FLAG-PE.

Results on four molecules are retold here after US20250163127A1 (published 2025).

B1: PD-L1 303-CTLA-4 3037-Fc (SEQ ID NO 3523) (Fc fusion)
chain: FTVTVPKDLYVVEYGSNMTIECKFPVEKQLDLAALIVYWEMEGKDIIQFVHGEEDQKAQHSSYRQRARLLKDQLSLGNAALQITDVKLQDAGVYRCMISYGGGADYKRITVKVNAGSGGSGGGGSGGGGSKAMHVAQPAVVLASSRGIASFVCEYASPWKATEVRVTVLRQADSQVTEVCAATYMMGSELTFPDDSICTGTSSGNQVNLTIRGLRAMDTGLYICKVEQMYPPPYLLGIGNGTQIYVIDPEPCPDSDGGGGSGSGGGGSEPKSSDKTHTCPPCPAPEAEGAPSVFLFPPKPKDTLMISRTPEVTCVVVDVSHEDPEVKFNWYVDGVEVHNAKTKPREEQYNSTYRVVSVLTVLHQDWLNGKEYKCKVSNKALPAPIEKTISKAKGQPREPQVYTLPPSRDELTKNQVSLTCLVKGFYPSDIAVEWESNGQPENNYKTTPPVLDSDGSFFLYSKLTVDKSRWQQGNVFSCSVMHEALHNHYTQKSLSLSPG
Consider B1, for which the “% CD25 Hi FoxP3 +” value with PD-1 and in the assay with human CD80 was 44.2 % at 100 nM each time.

B2: CD155 665-ICOSL 2264-ICOSL 2264-CD155 665 (other)
chain: WPPPGTGDVVVQAPTQVSGFLGDSVTLPCYLQVPNMEVTHVSQLTWARHGESGSMAVFHQTQGPWYAESKRLEFVAARLGAELRNASLRVFGLRAEDEGNYTCQFVTFPQRSRSVDIWLRVLGGGGSGGGGTGGGGSDTQEKEVRAMVGSDVELSCACPEGSRFDLNDVYVYWQTSESKTVVTYHIPQHSSLEYVDSRYRNRALMSPAGMLRGDFSLRLFNVTPQDEQKFHCLVLSRSLGFQEVLSVEVTLHVAANFSVGGGGSGGGGSGGGGSDTQEKEVRAMVGSDVELSCACPEGSRFDLNDVYVYWQTSESKTVVTYHIPQHSSLEYVDSRYRNRALMSPAGMLRGDFSLRLFNVTPQDEQKFHCLVLSRSLGFQEVLSVEVTLHVAANFSVGSGGSGGGGSGGGGSWPPPGTGDVVVQAPTQVSGFLGDSVTLPCYLQVPNMEVTHVSQLTWARHGESGSMAVFHQTQGPWYAESKRLEFVAARLGAELRNASLRVFGLRAEDEGNYTCQFVTFPQRSRSVDIWLRVLGSGGGGSDYKDDDDKHHHHHH
As to B2, the “100 nM IFN-gamma (pg/mL), SEB assay” value with TIGIT and with CD28 was 2120 pg/mL in each case.

B3: PD-L1 303-CTLA-4 3495-Fc (Fc fusion)
chain: FTVTVPKDLYVVEYGSNMTIECKFPVEKQLDLAALIVYWEMEGKDIIQFVHGEEDQKAQHSSYRQRARLLKDQLSLGNAALQITDVKLQDAGVYRCMISYGGGADYKRITVKVNAGSGGSGGGGSGGGGSKAMHVAQPAVVLASSRGIASFVCEYASPGKATEVRVTVLRQADSQVTEVCAATYMMGNELTFLDDSICTGTSSGNQVNLTIQGLRAMDTGLYICKVELMYPPPYYLGIGNGTQIYVIDPEPSPDSDQGGGGSGSGGGGSEPKSSDKTHTCPPCPAPEAEGAPSVFLFPPKPKDTLMISRTPEVTCVVVDVSHEDPEVKFNWYVDGVEVHNAKTKPREEQYNSTYRVVSVLTVLHQDWLNGKEYKCKVSNKALPAPIEKTISKAKGQPREPQVYTLPPSRDELTKNQVSLTCLVKGFYPSDIAVEWESNGQPENNYKTTPPVLDSDGSFFLYSKLTVDKSRWQQGNVFSCSVMHEALHNHYTQKSLSLSPG
Take B3: the “% CD25 Hi FoxP3 +” value with PD-1 and in the assay with human CD80 was 19.1 % at 100 nM throughout.

B4: PD-L2 1417-IL16 (other)
chain: LFTVTVPKELYIIEQGSNVTLECNFDTGSHVNLGAITASLQKVENDASPHRERATLLEEQLPLGRALFHIPQVQVRDEGQYRCIIIYGDAWDYKYLTLKVKAGSGGSGGGGSGGGGSSAASASAASDVSVESTAEATVCTVTLEKMSAGLGFSLEGGKGSLHGDKPLTINRIFKGAASEQSETVQPGDEILQLGGTAMQGLTRFEAWNIIKALPDGPVTIVIRRKSLQSKETTAAGDSDYKDDDDKHHHHHH
B4 had an MFI with human PD-1 of 19900.
